The results in this text go back to patent US20160304615A1.

Test [1] deals with EGFRvIII-mFc (human). In words: SPR 37C, mAb-capture.
For test [2], the target named is EGFRvIII-mmh (human) (UniProt P00533). In words: SPR 37C, mAb-capture.
The target in test [3] is full-length hEGFRvIII on cells (human) (UniProt P00533). Kind of test: FACS, HEK293/EGFRvIII cells, PE secondary antibody. (A flow cytometer gives signals particle by particle.)
Test [4] deals with wild-type human EGFR on cells (human) (UniProt P00533). In words: FACS, A431 cells, PE secondary antibody.
The target in test [5] is EGFRvIII-mmh (human) (UniProt P00533). Kind of test: SPR, captured hEGFRvIII-mmh; no first antibody.
Test [6] has the same target. Kind of test: SPR coinjection; competitor (first antibody): H1H1863N2(Fuc-).
For test [7], the target named is full-length hEGFRvIII on cells (human) (UniProt P00533). Kind of test: FACS, HEK293/EGFRvIII cells, directly labeled antibody.
The target of test [8] is EGFRvIII-mmh (human) (UniProt P00533). In words: ELISA. (In general: In an ELISA, binding on a coated surface is turned into a signal by an enzyme label.)
In test [9] the target is C-terminal biotin-labeled EGFRvIII junctional peptide (human). In words: ELISA.
Test [10] deals with N-terminal biotin-labeled EGFRvIII junctional peptide (human). In words: ELISA.
The target in test [11] is EGFRvIII junctional peptide (human). In words: ELISA.
Test [12] concerns the target full-length hEGFRvIII on cells (human) (UniProt P00533). Kind of test: cell-based or functional assay.
The target in test [13] is EGFRvIII-mmh (human) (UniProt P00533). Kind of test: SPR coinjection; competitor (first antibody): Control II.
Test [14] has as its target EGFRvIII-mFc (human). In words: SPR 37C, receptor-capture.
For test [15], the target named is EGFRvIII-mmh (human) (UniProt P00533). In words: SPR coinjection; competitor (first antibody): Control III.
For test [16] the target is unchanged. Kind of test: SPR coinjection; competitor (first antibody): Control I.
For test [17], the target named is wild-type human EGFR on cells (human) (UniProt P00533). In words: FACS, A431 cells, directly labeled antibody.
The next test addresses EGFR-mmh (human) (UniProt P00533). Kind of test: ELISA.
The next test concerns the target EGFR-mFc (human). Kind of test: SPR 37C, receptor-capture.

Chain of Control III: Humanized anti-EGFRvIII antibody (hIgG1) with the variable domains of the "hu806" antibody of US 2010/0056762 (VH): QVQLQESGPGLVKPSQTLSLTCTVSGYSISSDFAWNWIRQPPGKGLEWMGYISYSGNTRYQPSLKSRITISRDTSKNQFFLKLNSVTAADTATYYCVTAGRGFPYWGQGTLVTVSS
Chain of Control III: Humanized anti-EGFRvIII antibody (hIgG1) with the variable domains of the "hu806" antibody of US 2010/0056762 (VL): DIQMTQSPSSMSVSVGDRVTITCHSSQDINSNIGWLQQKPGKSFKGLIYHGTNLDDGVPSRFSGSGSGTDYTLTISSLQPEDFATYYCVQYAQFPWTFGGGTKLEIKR

As to “Control V: Human anti-EGFRvIII antibody (IgG1) with the variable domains of the "131" antibody of U.S. Pat. No. 7,736,644 B2”, in the test with EGFRvIII-mFc (human) [1], the Kd (commonly a measure of binding affinity in units of concentration) was found to be 1.95 nM; the T½ was found to be 31 min; the koff (as a rule, a measure of how fast the partners let go of each other) was determined as 0.000371 s⁻¹; the kon (usually the rate constant with which the complex forms) is 191000 M⁻¹ s⁻¹. Moreover, in the test with EGFRvIII-mmh (human) [2], the Kd worked out at 82 nM, the T½ is 1 min, the koff was 0.0159 s⁻¹ and the kon was 194000 M⁻¹ s⁻¹. In [3], the HEK293/EGFRvIII MFI is 997000 MFI and the Ratio (EGFRvIII MFI/parental MFI) turned out to be 85. Moreover, in test [4], the A431 MFI is 4240 MFI and the Fold Above Background amounted to 3 fold.

As for “Control I: Human anti-EGFRvIII antibody (IgG1) with the variable domains of the "13.1.2" antibody of U.S. Pat. No. 7,736,644”, the Kd with EGFRvIII-mFc (human) [1] was 103 nM; in the test with EGFRvIII-mmh (human) [2], 1190 nM; with EGFRvIII-mFc (human) [14], 9.06 nM. Moreover, the T½ with EGFRvIII-mFc (human) [1] was 1.6 min; with EGFRvIII-mmh (human) [2] it was 0.1 min; with EGFRvIII-mFc (human) [14], 0.0483 h. For the same substance, the Second Antibody Binding Response (RU) in the test with EGFRvIII-mmh (human) [5] is 234 RU; with EGFRvIII-mmh (human) [6] it was 253 RU; in the test with EGFRvIII-mmh (human) [13], 252 RU; in the test with EGFRvIII-mmh (human) [15] it was 254 RU; with EGFRvIII-mmh (human) [16] it was 5 RU. Besides, the HEK293/EGFRvIII MFI in test [7] worked out at 258000 MFI; in test [3], 272000 MFI. The EC50 (as a rule, the concentration needed to bring the measured effect to its halfway point) was 0.0094 nM with EGFRvIII-mmh (human) [8], 0.0153 nM in test [9], 0.0106 nM in test [10] and 0.118 nM in test [11]. In test [12], this substance yielded a Fluorescent Intensity of vesicles 4° C., Mean of 22000. In addition, the Fluorescent Intensity of vesicles 37° C., Mean in [12] came out at 264000. For the same substance, the A431 MFI in test [4] was determined as 1450 MFI; in test [17], 9650 MFI.

Regarding “Control II: Chimeric anti-EGFRvIII antibody (hIgG1) with the variable domains of the "ch806" antibody of U.S. Pat. No. 7,589,180”, the Kd in the test with EGFRvIII-mFc (human) [1] was 2.02 nM; in the test with EGFRvIII-mmh (human) [2], 150 nM; with EGFRvIII-mFc (human) [14], 0.059 nM; with EGFR-mFc (human), 0.329 nM. In addition, the T½ in the test with EGFRvIII-mFc (human) [1] was determined as 28 min; with EGFRvIII-mmh (human) [2] it was 2 min; with EGFRvIII-mFc (human) [14], 2.63 h; in the test with EGFR-mFc (human), 79 min. The koff with EGFRvIII-mFc (human) [1] was 0.000408 s⁻¹; with EGFRvIII-mmh (human) [2] it was 0.00733 s⁻¹; with EGFRvIII-mFc (human) [14], 7.31e-05 s⁻¹; with EGFR-mFc (human), 0.000146 s⁻¹. The kon was found to be 202000 M⁻¹ s⁻¹ with EGFRvIII-mFc (human) [1], 49000 M⁻¹ s⁻¹ in the test with EGFRvIII-mmh (human) [2], 1.25e+06 M⁻¹ s⁻¹ with EGFRvIII-mFc (human) [14] and 444000 M⁻¹ s⁻¹ with EGFR-mFc (human). The Second Antibody Binding Response (RU) was determined as 247 RU in the test with EGFRvIII-mmh (human) [5]; 191 RU in the test with EGFRvIII-mmh (human) [6]; 6 RU with EGFRvIII-mmh (human) [13]; 13 RU with EGFRvIII-mmh (human) [15]; 258 RU with EGFRvIII-mmh (human) [16]. Also, the HEK293/EGFRvIII MFI in test [7] and in test [3] was 313000 MFI throughout. In addition, the Ratio (EGFRvIII MFI/parental MFI) amounted to 87.4 in test [7] and 308 in test [3]. The values for the EC50 in the test with EGFRvIII-mmh (human) [8] and with EGFR-mmh (human) were 0.0057 nM and 0.0095 nM, respectively. For the same substance, the Fluorescent Intensity of vesicles 4° C., Mean in [12] worked out at 20300. Besides, the Fluorescent Intensity of vesicles 37° C., Mean in test [12] was 615000. Moreover, the A431 MFI is 5580 MFI in test [4] and 15700 MFI in [17]. The Fold Above Background was 3.9 fold in test [4] and 2.3 fold in test [17].

Turning to “Control III: Humanized anti-EGFRvIII antibody (hIgG1) with the variable domains of the "hu806" antibody of US 2010/0056762”, the dissociation constant (Kd) came to 1.18 nM with EGFRvIII-mFc (human) [1], 0.00067 nM in the test with EGFRvIII-mFc (human) [14] and 0.215 nM in the test with EGFR-mFc (human). The T½ is 39 min with EGFRvIII-mFc (human) [1], 192 h with EGFRvIII-mFc (human) [14] and 187 min with EGFR-mFc (human).
